Measured values: the supplement of paper PMC9732359
± gives the uncertainty stated by the source.

Assay: protein stability index of a GFP-peptide fusion (yeast GPS) (PSI 1-4); higher = more stable; sorted into four equal gates, so the index is relative within each strain
In short: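 Plasmids in a pooled yeast library fused tiled 17-residue yeast protein peptides downstream of GFP and also expressed Cherry. Mid-log cultures grown without leucine were sorted into four equal gates by GFP/Cherry fluorescence ratio. Each gate's plasmids were PCR-amplified and Illumina-sequenced, and reads were matched to strains by barcodes. The protein stability index is derived by multiplying each gate's read frequency by its gate number and summing the results.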

Sequence	protein stability index (doa10∆)	protein stability index (pdr5∆)	protein stability index (san1∆)	protein stability index (ubr1∆)
TTYTYQQPNPLQDLISV [ROX3]	1.67 ± 0.059	1.81 ± 0.069	1.7 ± 0.11	2.08 ± 0.1
SDDQQEAVELVIGLDSE [YML103C/NUP188]	2.9 ± 0.17	3.54 ± 0.12	3.39 ± 0.12	3.38 ± 0.045
FKVQIIELLSYLVEAPW [YML103C/NUP188]	1.71 ± 0.091	2.03 ± 0.12	1.69 ± 0.21	2.26 ± 0.14
EIDPLTGMPISNDPDVN [BRN1]			2.87 ± 0.13	3.03 ± 0.085
IDFAPTSPFGGARPGRV [RPS9A]	2.82 ± 0.072	2.53 ± 0.074	2.62 ± 0.074	2.74 ± 0.05
PQQQQQHLQFNGSSDAS [YDL088C/ASM4]	2.41 ± 0.042	2.22 ± 0.048	2.04 ± 0.066	2.27 ± 0.03
KLSIAEERDRRRAQQGL [RPS4A]	2.11 ± 0.06	2.19 ± 0.069	2.49 ± 0.095	1.6 ± 0.063
NGALDPKMGVSSSSLEC [RPO31]	3.21 ± 0.097	3.41 ± 0.049	3.22 ± 0.067	3.21 ± 0.047
AQPSVQSSFAGTWSAKE [FAS2]	2.74 ± 0.21	3.13 ± 0.14	3.35 ± 0.076	3.09 ± 0.087
KRINKFLDSVHKQGSSY [POP7]	2.61 ± 0.04	2.52 ± 0.033	2.65 ± 0.045	2.37 ± 0.031
NCPHSDSTQLLETILEE [SSN2]	2.81 ± 0.1	3.1 ± 0.088	3.11 ± 0.13	2.94 ± 0.063
AFEELEGSWDRGIPRIS [PRP8]	2.88 ± 0.18	3.36 ± 0.19	3.36 ± 0.22	3.3 ± 0.24
LLLRCDDRVDKKFVSQI [POP3]	3.27 ± 0.11	3.34 ± 0.066	3.03 ± 0.054	3.22 ± 0.042
LRSDIPCLSRSCTKCPQ [DIS3]	2.89 ± 0.04	2.94 ± 0.04	2.91 ± 0.031	2.92 ± 0.033
ENNDDALDLDLDLFDPD [MED4]	2.89 ± 0.067	2.98 ± 0.098	2.79 ± 0.052	3.1 ± 0.051
RVIVAGTLDINPDDDYG [FAS1]	2.38 ± 0.069	2.87 ± 0.073	2.85 ± 0.06	2.51 ± 0.058
KKKTTLEDFENFKGLAK [YIL149C/MLP2]	2.82 ± 0.031	2.99 ± 0.03	2.957 ± 0.024	2.909 ± 0.026
RIATEASKLAAYNKKST [HTB1]	3.21 ± 0.097	2.47 ± 0.24		2.94 ± 0.098
IYNSASKASMQKEQNVN [YCS4]	1.65 ± 0.13	2.11 ± 0.13	1.58 ± 0.22	2.17 ± 0.077
LFQTIEKLINNSDDCMM [ECM29]	3.1 ± 0.083	2.92 ± 0.072	3.09 ± 0.063	3.03 ± 0.09
LMEASDAFRVHICGICG [RPB2]	2.08 ± 0.062	1.83 ± 0.098	2.23 ± 0.11	2.5 ± 0.072
VNEDPIFHPMIHYSWSF [YML103C/NUP188]	2.56 ± 0.056	2.46 ± 0.039	2.42 ± 0.045	2.49 ± 0.046
YLEELQRKKQSDVLRFL [RPL15A]	1.38 ± 0.16	2.25 ± 0.21	1.72 ± 0.26	1.5 ± 0.097
FNYVAVGDVSNLPYLDE [QCR2]	3.2 ± 0.095	3.14 ± 0.11	2.98 ± 0.13	3.11 ± 0.06
NGKDNNNESNKNNNGDE [MED2]	3.12 ± 0.053	3.17 ± 0.042	3.23 ± 0.034	3.15 ± 0.035
ELLLTTLSVSHGINLQN [SSN2]	1.89 ± 0.044	2.04 ± 0.043	1.76 ± 0.081	2.19 ± 0.059
KNGLYQEAFKIYQHLAS [SRP72]	1.81 ± 0.061	2.14 ± 0.11	2.33 ± 0.23	2.77 ± 0.091

Sequence	protein stability index (doa10∆)	protein stability index (pdr5∆)	protein stability index (san1∆)	protein stability index (ubr1∆)
RALQENGIIMNGTLIGC [YMR153W/NUP53]	1.88 ± 0.09	2.28 ± 0.071	2.93 ± 0.13	3.06 ± 0.066
TLERVHLSYCSNLTIYP [GRR1]	2.92 ± 0.067	3 ± 0.067	2.99 ± 0.15	3 ± 0.05
LQEAIDFAQKEINGDDD [PRE10]	2.96 ± 0.087	3 ± 0.079	3.23 ± 0.067	2.96 ± 0.076
VAADGKLVTYIVKFKQK [YLR335W/NUP2]	2.17 ± 0.059	2.11 ± 0.054	2.09 ± 0.064	2.02 ± 0.05
KKQKLIEEQDKKVQALQ [ITC1]	3.06 ± 0.094	2.6 ± 0.079	2.61 ± 0.087	2.82 ± 0.068
QLVLRGLLSQAIGCIER [YJR042W/NUP85]	1.98 ± 0.11	2.15 ± 0.073	1.71 ± 0.099	2.3 ± 0.076
KHGAVHLSTYLKVYKVG [RPL21A]	1.76 ± 0.07	1.69 ± 0.077	1.27 ± 0.2	3.02 ± 0.065
IPPDQQRLIFAGKQLED [RPS31]	2.92 ± 0.077	2.73 ± 0.06	3.18 ± 0.038	3.16 ± 0.035
LKMMKLIVDTHVQFRLG [PRP8]	2.53 ± 0.08	2.21 ± 0.075	2.56 ± 0.059	1.93 ± 0.048
LIVRAKNHTHNLPGNIT [RRP4]	2.77 ± 0.071	2.96 ± 0.049	2.89 ± 0.066	2.94 ± 0.052
SKSAFSFGTANTNGTNA [YOR098C/NUP1]	3 ± 0.088	3.08 ± 0.088	2.77 ± 0.14	2.86 ± 0.067
RDVSDDVFDTLATYCPR [GRR1]	3.02 ± 0.084	3.04 ± 0.071	3.05 ± 0.056	3.22 ± 0.06
GNNKDLKNTMQYLTNFS [RPB4]	3.16 ± 0.08	3.02 ± 0.072	3.02 ± 0.075	3.13 ± 0.061
THLHEALDIVCSDFVKI [NUT1]	2.28 ± 0.089	2.48 ± 0.063	2.15 ± 0.11	1.92 ± 0.078
LKSESATSQYLKQDLKK [YGL172W/NUP49]	2.81 ± 0.079	2.88 ± 0.072	2.9 ± 0.061	2.95 ± 0.079
RQPSLHKMSMMAHRVKV [RPO21]	2.2 ± 0.085	2.37 ± 0.073	2.81 ± 0.09	1.68 ± 0.082
EINSEDYDNKTKLIGVL [SRP68]	3.2 ± 0.15	3.04 ± 0.18	3.25 ± 0.076	3.02 ± 0.12
YFLVLSPYGNLQNDLIH [RPN5]	1.92 ± 0.091	2.42 ± 0.1	2.64 ± 0.089	2.67 ± 0.14
RQQAYKTAQTLDENLNS [YJL041W/NSP1]	2.84 ± 0.078	2.76 ± 0.079	3.12 ± 0.067	2.8 ± 0.05
LEFRWLTSSKSVIVSQF [SIN4]	1.73 ± 0.056	1.56 ± 0.059	1.6 ± 0.087	1.42 ± 0.061
IQRTLMELLTQMDGFDN [RPT4]	2.84 ± 0.12	3.22 ± 0.079	3.28 ± 0.15	3.23 ± 0.1
SLIRNNLHAEGWPKLQL [ECM29]	1.15 ± 0.056	1.25 ± 0.081	1.32 ± 0.17	1.04 ± 0.085
QDSTSENVKIINYLLTL [RPN2]	3.42 ± 0.074	3.1 ± 0.079	3.16 ± 0.071	2.9 ± 0.12
HEAYSIIEKITDQILQL [RRP45]	2.55 ± 0.22	2.31 ± 0.2		
VPRAALEERFDPKSPTK [YMR129W/POM152]	3.15 ± 0.062	3.09 ± 0.064	3.01 ± 0.043	3.1 ± 0.047
LQVLKRERDGIKEDIEK [SMC1]	3.06 ± 0.23	2.85 ± 0.12	3.15 ± 0.066	2.75 ± 0.23
LQQKQQQRFQALQQQQQ [SWI1]	1.35 ± 0.057	1.53 ± 0.047	1.37 ± 0.083	1.56 ± 0.063
